Assay results from the supplement of paper PMC9170038.

System: K4 kissing-loop RNA reporter
Test: apparent KD of K4 kissing-loop reporter; higher = weaker reporter binding
Settings: Eterna round: R107
Procedure: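 RNA-MaP round R107: designed RNA switches with theophylline, tryptophan, arginine or FMN aptamers are transcribed on-chip within common flanks. They are titrated with a labelled K4 kissing-loop RNA reporter in RNA-MaP buffer (100 mM Tris pH 7.5, 80 mM KCl, 4 mM MgCl2), without ligand or with the indicated ligand. Median apparent KD per design.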

[1] = input ligand: theophylline 20 uM
[2] = input ligand: tryptophan 2.4 mM
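Also: bound reporter read as fluorescence of individual clusters on recovered sequencing chips by microscopy, with normalized cluster intensities fitted with a binding model.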

Row | Sequence | apparent KD of K4 kissing-loop reporter (input ligand: FMN 200 uM) [µM] | apparent KD of K4 kissing-loop reporter (input ligand: arginine 13.2 mM) [µM] | apparent KD of K4 kissing-loop reporter (input ligand: none) [µM] | apparent KD of K4 kissing-loop reporter [1] [µM] | apparent KD of K4 kissing-loop reporter [2] [µM]
1 | UUAUAUCUCUGACUUUCACUUUGCGUAUCUGAGGAUAUCUGAAUUCAGAGAAGGCAGUGAUGUUGCUUUGCUGUGUGUCUGAGAA [AK2 Exc FMN A] | 0.702 | 0.464 | 0.526 | 0.499 | 0.372
2 | CUCGUGGGUUUGAGAGGGCUUGUGGGAAGAUAGGAUAUCUAGGGAGGGAGAAGGAUCUAUAGAAUAUAGUGAUGUUAUAUAUGGG [#05 K4 FMN A Same State] | 0.164 | 0.131 | 0.0877 | 0.154 | 0.122
3 | UGAUUUAACUGAAGGAGCGGCAAUUGAUAAGUAAAUAUAGUGAUGUUAUAUAAGAUAGAGAGCCAGGUAGGUCGCAGAGGGAGGA [ExArgB.J] | 0.169 | 0.139 | 0.159 | 0.159 | 0.129
4 | UGCAGUGAUGUUGCUAUUUUUCUUGAUUAACGAGGACCGGUACGGCCGCCACUCGAUUUCUCUCUAAUCCAGUAUGUUGUUUAGU [JR_ExcTryptoA_Sub001] | 0.111 | 0.144 | 0.121 | 0.14 | 0.0904
5 | CCUGAUCCUAGUGAUGUUAGGUCCAACGGCCGAGGACCGGUACGGCCGCCACUCGUCAAUUGGAAACAGCCCACGGGCACCGGGU [theeternabot_sameState_KL_Trp_A_19] | 0.825 | 0.502 | 0.906 | 0.814 | 0.783
6 | GGGCGUUACGGAGUGAUGUUCCGUAGCGAUACCAGCCAUUGCGAUGGCCCUUGGCAGCGCUAUAAGCAUAGAAUUGUAGCGCUUA [Theo A Ex t7b] | 0.109 | 0.0941 | 0.108 | 0.102 | 0.105
7 | UUUAUUAAGACGGCCGCCACUGAUUCAGAGUGAUGUUCUGAUAUUUUUUUAUAUAAUAAUAACAGCAGGACCGGGUCAAUUAUUA [JR_SSTryptoB_Sub013] | 0.225 | 0.237 | 0.233 | 0.272 | 0.192
8 | AAAAUAAACCAGUGAUGUUGGUGUCCAGAUACCAGCGAUAAUAAUCGCCCUUGGCAGCUGCGGACGUACAAAAUAAGUACGUCCU [MatMod 11 - Jieux - Same State - Theophylline A] | 0.482 | 0.351 | 0.513 | 0.294 | 0.408
9 | UGAUACCAGACUGAUACCAGCAAGUGAUGUUUGUUGAUCUAAAGCAGUCAAAGACUGCCUUGCCCUUGGCAGCAGUCUGGUAUCU [TheoBX 27 #SwitchBubble #StaticStem] | 0.886 | 0.569 | 0.832 | 0.354 | 0.901
10 | GGGAGUAGUGCGGCCGCCACUGUGAAAGAAGAAGAAUAUAGUGAUGUUAUAUAGGAAUUAAAGAAUAGGACCGGGCAUUAGAUUU [SSTRyptB.Q] | 0.248 | 0.198 | 0.26 | 0.311 | 0.184
11 | CCGCCGGUCGGAAGGAGCGCACGCCAGAGUGAUGUUCUGGCGCGGGCAUUUUGUGCCCGCGUGCAGGUAGGUCGCCGAUUCUGGC [Quxeorti] | 0.602 | 0.414 | 0.427 | 0.452 | 0.498
12 | UCGUCUGUGUGAGGAUAUCCAAGCGAGCUGCGUAAAGGCGCGGCGUUUGGAGUGAUGUUCCAGGCAGGAGAAGGCGCACGGGCUU [Maleisar] | 0.231 | 0.296 | 0.245 | 0.47 | 0.292
13 | CCUAUCUGUUACGAUACCAGUCAAAGAUAUUUUAUCAAUGCCCUCACCGAGUGAUGUUCGGACCCUUGGCAGCGUCUGGGAUAGG [pnnbmullin] | 0.187 | 0.138 | 0.185 | 0.119 | 0.15
14 | UUUCAAAUUUAAGGAUAUUAGAUACCAGGAAAGGAGUGAUGUUCCGUGCUACGAUAGUGCUAGGGCUAAGAAGGUAAGUCUCGAG [theeternabot_sameState_KL_FMN_B_37] | 0.0791 | 0.0872 | 0.0856 | 0.0896 | 0.0591
15 | AGUGAUGUGGGAAGGAGCGCUAGUACACUUCAGUGAUGUUGAAGUGAUGAAUUAGUGUAUUGGCAGGUAGGUCGCCUAGAUGUUA [KL-XARG-B14] | 0.0974 | 0.0591 | 0.0829 | 0.0654 | 0.0725
16 | GUCCACACUGCAGGAUAUGGAGGAAUAGCGAGGGAGUGUGGAAGCACACCUCUGGCAGUGAUGUUGCCAGAAGGGCGGUGCGGCG [Cemaorar] | 0.111 | 0.0755 | 0.0764 | 0.069 | 0.0934
17 | UUGUUUGGUUGAGAGGUUGGGCGAGAUGAUACCAGUAGAGAAGAGUACCCUUGGCAGCAUAAGAAAGAUAUAGUGAUGUUGUAUA [SSTheophA.P] | 0.422 | 0.362 | 0.546 | 0.566 | 0.396
18 | UAGUCAUACAGAGGAUAUCGUAUGAGUGAUGUUCAAGUGCGUACAUCAACUUGAUGUACAGAUAGACGAGAAGGCUGUAUGACUA [FMB B SS t6] | 0.303 | 0.382 | 0.487 | 0.449 | 0.492
19 | CAUACGCAUGGAGGAUAUGGGAUUUCUCAUAUUAACCUGUAUCAGGUAUCUCAGUGAUGUUGAGACUCAGAAGGCCAUGUGUAUG [Ex FMN B 25] | 0.494 | 0.303 | 0.364 | 0.354 | 0.344
20 | CGUAGUUGGGCGGCCGCCACUUGAAAAGCUUUGCCAAAGGCAGAGCUCUAGAGUGAUGUUCUGGCAAGGACCGGGUCCAACUACA [#03 K4 Tryptophan B Same State] | 0.869 | 0.719 | 0.872 | 0.59 | 0.358
21 | AGGUUUUGAUUAGGAUAUGCACUGAGGAGGAGAAUAUAGUGAUGUUAUAUAAGAGGAAGGAGAAGAGUAGAAGGGAUUGAGGUUU [SSFMNB.Q] | 0.156 | 0.285 | 0.191 | 0.197 | 0.19
22 | GCCGUACGCAUGGAUACCAGAUGGCACUAUAAUCUACCAGAGUGAUGUUCUGGCCUGCCCAUCCCUUGGCAGCCAUGCGUACGGC | 0.293 | 0.199 | 0.287 | 0.171 | 0.206

Row | Sequence | apparent KD of K4 kissing-loop reporter (input ligand: FMN 200 uM) [µM] | apparent KD of K4 kissing-loop reporter (input ligand: arginine 13.2 mM) [µM] | apparent KD of K4 kissing-loop reporter (input ligand: none) [µM] | apparent KD of K4 kissing-loop reporter [1] [µM] | apparent KD of K4 kissing-loop reporter [2] [µM]
23 | GGGCGUGGCGCGGCCGCCACUGGGCCUGGGCGCUCGCUGAGUGAUGUUCGUCGGCGGUUGGGUCGUAGGACCGGGUGCUGGUUGG [BDazzled - #8 SS Tryptophan B] | 0.402 | 0.199 | 0.516 | 0.281 | 0.253
24 | CUGAUGCUGAUGCGGCGGCCGGUGGUCGUGCGAGGACCGGUACGGCCGCCACUCGCGCGAGUGAUGUUCGCGCGUCGUCGUCGUC [First Shot] | 0.12 | 0.0914 | 0.114 | 0.0769 | 0.117
25 | AGUGGACGUGUCCGGAGUGAUGUUCCGGAUACCAGACACGAAAGUGUCCCUUGGCAGCCGGAGUAAAGUUCCGGCGUUCACUAAA [#26 K4 Theophylline A Exclusion] | 0.109 | 0.0778 | 0.111 | 0.0672 | 0.105
26 | GGUGCGGGCUCGGCCGCCACUCCCUCCUGCCGUAAGGUGGGAUACCGAGUGAUGUUCGGUUGGAGGAGGACCGGGAGCCCGUGCC [#2 Exclusion - Tryptophan B Attempt #16 (HarryS)] | 0.131 | 0.102 | 0.114 | 0.11 | 0.125
27 | UGUAAUGAGUGAUGUUCAUGUAGUAAGGAUACCAGUAAUUCAAAAUGCCCUUGGCAGCUUAGUUCUAUCUAUAGUUGGGUAGUGG [Theophilline A V4 (+5U)] | 0.162 | 0.209 | 0.205 | 0.206 | 0.123
28 | UUCGAUCAGUGAUGUUGAUCAUCAGUCGAAGGAGCGCUAGAGAUAGCAGGUAGGUCGCGACUGCAAGGUGUGAGAACACCUCGAA [Arg A SS t9a] | 0.457 | 0.358 | 0.487 | 0.444 | 0.255
29 | GCUAUGGUUGGAAGGAGCGUUGAAUUGUUAGUAAGAGUGAUGUUCGAUAGUGGACAGUUGUAGCAGGUAGGUCGCCAACUAUAGC [KL-Arg B28] | 0.329 | 0.57 | 0.277 | 0.56 | 0.52
30 | UUGGCAGUGAUGUUGCCAGAGCUCACCGAAGGAGCGCGUGAAAACGCAGGUAGGUCGCGGUAGCGGAGUGAUUCUCCGCGAGGGC [Same State Arginine A GF 21] | 0.0445 | 0.0717 | 0.0772 | 0.0803 | 0.0879
31 | UGACUGGACUGAAGGAGCGAGGACGGUCAUAGACCGAAAUCAGUGAUGUUGAAAGAUAAACCUCAGGUAGGUCGCAGUCUAGUCU [ArgBS 1 #SwitchBubble #StaticStem] | 1.07 | 0.918 | 0.79 | 0.546 | 1.23
32 | UAACGACUCGGAAGGAGCGCGGUUUUAAAAGACUAAGGCCGAGUGAUGUUCGGAGAAGUCCCGCAGGUAGGUCGCCGGGUUGUGG [Ceororedar] | 0.124 | 0.138 | 0.13 | 0.199 | 0.148
33 | UGAUAAAGCAGUGAUGUUGCAAGAAAUGAUACCAGUUAAGAAGAGAACCCUUGGCAGCAUAAAGUGCGCUCUAAUGAGUGUGCUU [whbob_SS_Theo_A_w50] | 0.0888 | 0.143 | 0.123 | 0.179 | 0.0876
34 | UAGUGUCGCGCAGGAUAUACUGAUUGGAGUGAUGUUCCAAACAUGAACGUGAGACUUUUACAAGAAGUAGAAGGGCGUGAGACAU [Exclusion FMN B GF 21] | 0.276 | 0.32 | 0.405 | 0.393 | 0.404
35 | CCAUUCUGUUACGAUACCAGUCAAAUAUAUUUGAUCAAUACCCUCGCCGAGUGAUGUUCGGACCCUUGGCAGCGUCUGGGACAGG [ccdfmullin] | 0.537 | 0.561 | 0.71 | 0.544 | 0.596
36 | CACCGGACGAAAGAUACCAGUUACUAUAUUAGGGUGCCUUGGCUAGUGAUGUUAGAGAGUAACCCUUGGCAGCUUUGGUACUUAU [theeternabot_exclusion_KL_Theo_B_21] | 0.38 | 0.367 | 0.39 | 0.319 | 0.335
37 | CCUAUCUCAUACGAUACCAGUGAAUUAAUAUUUAUAAGCAGUGAUGUUGCAUUCCAAGUACACCCUUGGCAGCGUAUGGGAUAGG [Ex Theophylline B K4 20] | 0.147 | 0.151 | 0.151 | 0.159 | 0.12
38 | GCAGGACGAGGAGGAGGAUGAAUUACUGAAGGAGCGCAUAUUUUUGCAGGUAGGUCGCGGUAAAGAAGUAUAGUGAUGUUAUAUA [SSArgA.L] | 0.482 | 0.476 | 0.47 | 0.406 | 0.408
39 | CAUAUACAAGUGAUGUUUGUACUAACCGAAGGAGCGUCGUUGAAGACAGGUAGGUCGCGGUUUAAGUUAGAUUAUAUAAUUCCAC [JR_Nu_SSArginiA_Sub027] | 0.705 | 0.535 | 0.892 | 0.715 | 0.509
40 | GUGCGGUGGAGGCUACCGCUACUCUGAGAAGGAGCGCAGAAGACUGCAGGUAGGUCGCUUAGAGCUUGCAGUGAUGUUGCAAGUU [KL-SSArg-A18] | 0.134 | 0.135 | 0.183 | 0.156 | 0.176
41 | CGAAGAGAGUGAUGUUCUCUAGGCAAAAGAAAGGAUAUAAUGUUUGUUAGAAGGUUCGGAAAAUGGAACGUCGGCCCGUACAACC [theeternabot_exclusion_KL_FMN_A_18] | 0.151 | 0.129 | 0.139 | 0.127 | 0.121
42 | AGUUCUUGCCGAAGGAGCGAGGCAGAGUGAUGUUCUGCAGGAGGUCGAAAGACCUCCCUGCCUCAGGUAGGUCGCGGCAUGAACA [Omei KL Arginine B Exc A v1] | 0.587 | 0.59 | 1.25 | 0.566 | 0.478
43 | UUUAUUAAGACGGCCGCCACUGAUUCAUAGUGAUGUUAUGAUAUAAUUUUAGUGAUGUGCAUUAGCAGGACCGGGUCAAUUAUUA [#28 K4 Tryptophan B Exclusion] | 0.125 | 0.108 | 0.12 | 0.0947 | 0.101
